Literature values in publication PMC4166121.
pKd: −log10 of the molar value.

Target: p38 MAPK (UniProt Q16539)
Sequence (Q16539 2-360): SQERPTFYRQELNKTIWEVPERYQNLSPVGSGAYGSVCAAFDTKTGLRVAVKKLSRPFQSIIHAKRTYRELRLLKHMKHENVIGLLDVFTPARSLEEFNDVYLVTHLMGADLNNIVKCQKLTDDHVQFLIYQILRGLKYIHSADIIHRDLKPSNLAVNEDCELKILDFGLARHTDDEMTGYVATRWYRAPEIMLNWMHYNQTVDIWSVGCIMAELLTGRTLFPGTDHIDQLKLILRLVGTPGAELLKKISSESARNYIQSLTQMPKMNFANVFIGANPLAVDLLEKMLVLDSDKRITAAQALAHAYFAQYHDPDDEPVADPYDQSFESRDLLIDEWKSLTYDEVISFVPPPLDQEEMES

Sequence of eNOS (P29474 2-1203): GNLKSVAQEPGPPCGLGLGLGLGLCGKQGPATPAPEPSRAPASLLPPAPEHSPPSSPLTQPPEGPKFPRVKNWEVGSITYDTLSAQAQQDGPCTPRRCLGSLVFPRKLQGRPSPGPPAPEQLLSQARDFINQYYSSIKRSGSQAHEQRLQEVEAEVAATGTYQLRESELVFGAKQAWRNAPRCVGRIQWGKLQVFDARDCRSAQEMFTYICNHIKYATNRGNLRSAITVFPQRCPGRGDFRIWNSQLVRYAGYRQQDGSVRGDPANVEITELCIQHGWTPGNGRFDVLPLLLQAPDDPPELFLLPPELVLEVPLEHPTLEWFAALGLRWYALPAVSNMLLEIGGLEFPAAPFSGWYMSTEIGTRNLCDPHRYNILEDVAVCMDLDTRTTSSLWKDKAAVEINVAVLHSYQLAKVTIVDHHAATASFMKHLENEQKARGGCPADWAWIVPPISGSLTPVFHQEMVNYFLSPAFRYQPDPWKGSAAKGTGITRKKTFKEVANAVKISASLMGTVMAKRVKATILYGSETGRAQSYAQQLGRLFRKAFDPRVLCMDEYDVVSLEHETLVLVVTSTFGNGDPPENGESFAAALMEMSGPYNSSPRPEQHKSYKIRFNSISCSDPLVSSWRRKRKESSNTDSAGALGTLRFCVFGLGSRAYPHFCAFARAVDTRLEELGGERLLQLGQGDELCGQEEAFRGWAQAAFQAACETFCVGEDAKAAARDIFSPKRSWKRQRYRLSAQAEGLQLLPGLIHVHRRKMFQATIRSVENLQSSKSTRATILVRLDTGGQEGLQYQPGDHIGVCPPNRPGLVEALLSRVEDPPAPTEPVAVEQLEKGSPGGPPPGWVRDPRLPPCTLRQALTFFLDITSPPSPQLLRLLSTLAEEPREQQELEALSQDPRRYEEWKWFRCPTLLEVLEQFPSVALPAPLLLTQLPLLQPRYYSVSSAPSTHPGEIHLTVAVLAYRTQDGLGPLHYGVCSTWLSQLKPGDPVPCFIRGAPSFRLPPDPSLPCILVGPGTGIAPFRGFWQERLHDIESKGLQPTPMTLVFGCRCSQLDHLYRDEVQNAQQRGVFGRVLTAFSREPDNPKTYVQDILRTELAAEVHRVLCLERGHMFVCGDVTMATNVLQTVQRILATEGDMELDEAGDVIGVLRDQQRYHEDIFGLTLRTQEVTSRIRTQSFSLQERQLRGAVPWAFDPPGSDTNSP

Substance: eNOS (from UniProt P29474)
- pKd: 10.10
